Test results taken from US20230374147A1 (HUMMINGBIRD BIOSCIENCE PTE, published 2023).
Where two headings read alike, the source gives them in different places.

What was measured:
[1] = target: T1, His-tagged human BCMA (Acro Biosystems, Cat. #BCA-H522y) (human, UniProt Q02223 1-54); test: BLI, His-tagged human BCMA on HIS1K tip
T1 construct: also called huBCMA; P1; not shown: His tag
T1 sequence: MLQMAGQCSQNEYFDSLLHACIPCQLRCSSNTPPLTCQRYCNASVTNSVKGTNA

[2] = target: T2, recombinant his-tagged human TACI (Sinobiological cat #11937-H08H) (human, UniProt O14836 1-165); test: ELISA, coated His-tagged human TACI
T2 construct: Bought protein; also called Human TACI-His; huTACI; not shown: His tag
T2 sequence: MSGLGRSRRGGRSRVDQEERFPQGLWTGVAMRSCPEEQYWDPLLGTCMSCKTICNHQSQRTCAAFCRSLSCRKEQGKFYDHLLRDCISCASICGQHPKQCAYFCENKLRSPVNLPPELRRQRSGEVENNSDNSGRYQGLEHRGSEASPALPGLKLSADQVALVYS

[3] = target: T3, His-tagged cynomolgous macaque BCMA (Acro Biosystems, BCA-C52H7) (cynomolgus macaque, UniProt Q02223 1-54 (human entry)); test: ELISA, coated His-tagged cynomolgus BCMA
T3 construct: Bought protein; also called cyno BCMA; CyBCMA; not shown: His tag

[4] = target: T3, His-tagged cynomolgous macaque BCMA …; test: BLI, His-tagged cynomolgus BCMA on HIS1K tip; R2 0.9552
[5] = target: T3, His-tagged cynomolgous macaque BCMA …; test: BLI, His-tagged cynomolgus BCMA on HIS1K tip
[6] = target: T1, His-tagged human BCMA (Acro Biosystems, …); test: BLI, His-tagged human BCMA on HIS1K tip; R2 0.9928
[7] = target: T4, human BCMA expressed on cells (human, UniProt Q02223 1-184); test: flow cytometry, H929 cells (BCMA-expressing)
T4 construct: the cell line is named under assay; also called wildtype human BCMA
T4 sequence: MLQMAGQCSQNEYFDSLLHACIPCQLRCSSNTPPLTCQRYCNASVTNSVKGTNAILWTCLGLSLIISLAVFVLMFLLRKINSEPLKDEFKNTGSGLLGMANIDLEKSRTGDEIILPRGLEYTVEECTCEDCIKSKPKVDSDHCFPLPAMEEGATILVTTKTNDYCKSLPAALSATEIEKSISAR

[8] = target: T1, His-tagged human BCMA (Acro Biosystems, …); test: BLI, His-tagged human BCMA on HIS1K tip, no APRIL; R2 0.9928
[9] = target: T5, cynomolgous macaque BCMA expressed on CHOK1 cells; test: flow cytometry, CHOK1 cells transiently expressing cynomolgus BCMA
T5 construct: also called cyno BCMA on cells

[10] = target: T3, His-tagged cynomolgous macaque BCMA …; test: BLI, His-tagged cynomolgus BCMA on HIS1K tip; R2 0.9421
[11] = target: T1, His-tagged human BCMA (Acro Biosystems, …); test: ELISA, coated His-tagged human BCMA
[12] = target: T1, His-tagged human BCMA (Acro Biosystems, …); test: BLI, His-tagged human BCMA on HIS1K tip, no APRIL; R2 0.9933
[13] = target: T4, human BCMA expressed on cells; test: flow cytometry, HEK 293 cells expressing human BCMA
[14] = target: T1, His-tagged human BCMA (Acro Biosystems, …); test: BLI, His-tagged human BCMA on HIS1K tip; R2 0.9933
[15] = target: T4, human BCMA expressed on cells; test: flow cytometry, HEK293 cells stably expressing human BCMA
[16] = target: T1, His-tagged human BCMA (Acro Biosystems, …); test: BLI, His-tagged human BCMA on HIS1K tip; R2 0.9939
[17] = target: T3, His-tagged cynomolgous macaque BCMA …; test: BLI, His-tagged cynomolgus BCMA on HIS1K tip; R2 0.9296
BCMA:APRIL 1:1 = target: T6, BCMA:APRIL 1:1 (human, UniProt Q02223;O75888); test: BLI, His-tagged human BCMA on tip, then human APRIL 3000 nM, then IgG; R2 0.9805
T6 construct: His-tagged recombinant;recombinant; also called human BCMA after incubation with human APRIL
T6 sequence (receptor, looked up): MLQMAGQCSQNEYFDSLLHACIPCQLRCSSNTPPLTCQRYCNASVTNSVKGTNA
T6 sequence (ligand, looked up): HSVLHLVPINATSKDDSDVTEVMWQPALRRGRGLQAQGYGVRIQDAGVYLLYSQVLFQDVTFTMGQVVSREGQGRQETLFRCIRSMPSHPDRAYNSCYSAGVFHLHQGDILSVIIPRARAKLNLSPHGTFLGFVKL

[18] = target: T1, His-tagged human BCMA (Acro Biosystems, …); test: BLI, His-tagged human BCMA on HIS1K tip, no APRIL; R2 0.9939
[19] = target: T5, cynomolgous macaque BCMA expressed on …; test: flow cytometry, CHOK1 cells transiently expressing cynomolgus BCMA; remark: listed apart in the source
[20] = target: T1, His-tagged human BCMA (Acro Biosystems, …); test: BLI, His-tagged human BCMA on HIS1K tip; R2 0.9908
[21] = target: T2, recombinant his-tagged human TACI …; test: ELISA, coated His-tagged human TACI; remark: listed apart in the source
[22] = target: T1, His-tagged human BCMA (Acro Biosystems, …); test: ELISA, coated His-tagged human BCMA; remark: listed apart in the source
[23] = target: T4, human BCMA expressed on cells; test: flow cytometry, HEK293 cells stably expressing human BCMA; remark: listed apart in the source
[24] = target: T7, His-tagged mouse BCMA (Acro Biosystems, BCA-M52H3) (mouse, UniProt O88472 1-49); test: BLI, His-tagged mouse BCMA on HIS1K tip; R2 0.2661, below the filing's cut-off of 0.9
T7 construct: Bought protein; not shown: His tag
T7 chain: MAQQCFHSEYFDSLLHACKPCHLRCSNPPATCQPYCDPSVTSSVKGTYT

[25] = target: T7, His-tagged mouse BCMA (Acro Biosystems, …); test: BLI, His-tagged mouse BCMA on HIS1K tip
[26] = target: T1, His-tagged human BCMA (Acro Biosystems, …); test: BLI, His-tagged human BCMA on HIS1K tip, no APRIL; R2 0.9908

B1: 552-LN2-E6 hIgG1 (antibody, V domains shown)
VH: QIQLVQSGPELKKPGETVKISCMASGYTFTDYSVRWVKQAPGKGLEWMGWINTETGEPTYADDFKGRFAFSLETSASTAYLQINNLKNEDTATYFCAISYYYALDYWGHGTSVTVSS
VL: DIVLTQSPASLTVSLGQRATISCRASKSVSTSVYSFLHWYQQKPGQPPKLLIYLASNLESGVPARFSGSGSGTDFTLNIHPVEEEDAATYYCQHSRELPRTFGGGTKLEIKR
notes: Human-mouse chimeric antibody, human IgG1 format; also called [8]
Which “Human BCMA response” value [1] does the source give for B1 here?
Its value is 2.37.

Does B1 bind [2]?
Result: no binding (tested: 10 ug/ml)

And the “EC50 (read off the curve)” value [3]?
Its value is roughly 0.08 µg/mL.

What about the Kd [4] of the same binder?
Its Kd is 38.5 nM.

What about the “Cyno BCMA response” value [5] of the same binder?
The value was 1.55.

And the Kd [6]?
The Kd was less than 0.001 nM.

What about the “EC50 (read off the curve)” value [7] of the same binder?
The value was roughly 0.3 µg/mL.

What about the Kd [8] of the same binder?
Its Kd is less than 0.001 nM.

Does B1 bind [9]?
Result: binds

B2: 552-LN1-E9 hIgG1 (antibody, V domains shown)
VH: QIQLVQSGPELKKPGETVKISCKASGYTFTDYSIYWVKQAPGKGLKWMGWINTETGEPTYADDFKGRFAFSLETSASSAYLQINTLKNEDTATYFCSISYYYAMDYWGQGTSVTVSS
VL: DIVLTQSPASLAVSLGQRATISCRASKSVSTSGYSFLHWYQQKPGQPPKLLIYFASNLESGVPARFSGSGSGTDFTLNIHPVEEEDAATYYCQHSRELPRTFGGGTKLEIKR
notes: Human-mouse chimeric antibody, human IgG1 format; also called [6]
With B2 as the binder, how does the Kd [10] read?
Its Kd is 32.6 nM.

What about the EC50 [11] of the same binder?
The EC50 was 0.081 nM.

What about the “Human BCMA response” value [1] of the same binder?
The value was 2.76.

Does B2 bind [2]?
Result: no binding (tested: 10 ug/ml)

And the “EC50 (read off the curve)” value [3]?
Its value is roughly 0.08 µg/mL.

What about the Kd [12] of the same binder?
Its Kd is less than 0.001 nM.

And the EC50 [13]?
The EC50 was 0.65 nM.

What about the Kd [14] of the same binder?
The Kd was less than 0.001 nM.

What about the “EC50 (read off the curve)” value [15] of the same binder?
The value was roughly 0.1 µg/mL.

And the “Cyno BCMA response” value [5]?
Its value is 1.8.

What about the “EC50 (read off the curve)” value [7] of the same binder?
Its value is roughly 0.05 µg/mL.

Does B2 bind [9]?
Result: binds

B3: 552-LN1-F4 hIgG1 (antibody, V domains shown)
VH: QIQLVQSGPELKKPGETVKISCMASGYTFTDYSVRWVKQAPGKGLEWMGWINTETGEPTYAHDFKGRFAFSLETSASTAYLQINNLKDEDTSTYFCAISYYYALDYWGHGTSVTVSS
VL: DIVLTQSPASLTVSLGQRATISCRASKSVSTSGYNFLHWYQQKPGQPPKLLIYLASNLESGAPARFSGSGSGTDFTLNIHPVEEEDAATYYCQHSRELPRTFGGGTKLEIKR
notes: Human-mouse chimeric antibody, human IgG1 format; also called [7]
Which “Human BCMA response” value [1] does the source give for B3 here?
Its value is 2.33.

Does B3 bind [2]?
Result: no binding (tested: 10 ug/ml)

What about the Kd [16] of the same binder?
Its Kd is less than 0.001 nM.

What about the Kd [17] of the same binder?
Its Kd is 71 nM.

And the Kd (BCMA:APRIL 1:1)?
Its Kd is 9.61 nM.

What about the “Cyno BCMA response” value [5] of the same binder?
Its value is 0.918.

What about the “EC50 (read off the curve)” value [7] of the same binder?
Its value is roughly 0.2 µg/mL.

What about the Kd [18] of the same binder?
Its Kd is less than 0.001 nM.

Does B3 bind [9]?
Result: binds

B4: 539-SP2-H3 hIgG1 (antibody, V domains shown)
VH: EVQLQQSGPELVKPGASVKMSCKASGYTFTSYVIHWVKQKPGQGLEWIGYVLPYNDVIKYNEKFKGKATLTSDKSSSTAYMDLSSLTSEDSAVYYCARWGDFDEGIWFPYWGQGTLVTVSA
VL: DVLMTQTPLSLPVSLGDHASVSCRSSQSIVHTDGNTYLEWYLQKPGQSPKLLIYKVSNRFSGVPDRFSGSGSGTDFTLKISRVEAEDLGVYYCFQGSHVPWTFGGGTKLEIKR
notes: Human-mouse chimeric antibody, human IgG1 format
Which “Human BCMA response” value [1] does the source give for B4 here?
The value was 2.36.

Does B4 bind [19]?
Result: binds

What about the Kd [20] of the same binder?
The Kd was less than 0.001 nM.

And the “EC50 (read off the curve)” value [21]?
Its value is roughly 0.7 µg/mL.

And the “EC50 (read off the curve)” value [22]?
The value was roughly 0.01 µg/mL.

And the “EC50 (read off the curve)” value [23]?
The value was roughly 0.06 µg/mL.

And the Kd [24]?
Its Kd is 7.25 nM.

And the “Mouse BCMA response” value [25]?
Its value is 0.29.

What about the Kd [26] of the same binder?
The Kd was less than 0.001 nM.
